Here are results for two proteins from publication PMC10637977, “The preferential transport of NO3^− by full-length Guillardia theta anion channelrhodopsin 1 is enhanced by its extended cytoplasmic domain” (The Journal of Biological Chemistry, 2023).

The series concerns the molecule itself. The experiment in a line: SDS-PAGE and Western blot; P. pastoris cells expressing the protein compared with a negative control; immunoblotting with an anti-His tag antibody; bands assigned to monomer and dimer by molecular mass. (In general: In western blotting, separated proteins are transferred to a membrane and probed.)

B1: full-length Guillardia theta anion channelrhodopsin 1 (GtACR1_full) (natural protein, UniProt L1J207 1-438, looked up)
chain: MSSITCDPAIYGEWSRENQFCVEKSLITLDGIKYVQLVMAVVSACQVFFMVTRAPKVPWEAIYLPTTEMITYSLAFTGNGYIRVANGKYLPWARMASWLCTCPIMLGLVSNMALVKYKSIPLNPMMIAASSICTVFGITASVVLDPLHVWLYCFISSIFFIFEMVVAFAIFAITIHDFQTIGSPMSLKVVERLKLMRIVFYVSWMAYPILWSFSSTGACIMSENTSSVLYLLGDALCKNTYGILLWATTWGLLNGKWDRDYVKGRNVDGTLMPEYEQDLEKGNTERYEDARAGETFEVKMFGRTLTSVRRSRRRPRRDIVFNGGDRNRLSDSDSERRRRRKKYQRKDSESENSSDESMGSEHEKNRRKGKKKNKENRRSAPPKEDSTSDTLRDAEIKRIMDLMKRNAGSDIPGLDGDGRLRDDGGLIPTRNEEHDDSA
modifications: all-trans-retinal bound to Lys238 via a protonated Schiff base linkage
notes: Guillardia theta anion channelrhodopsin 1 (GtACR1), full length, 438 amino acids (rhodopsin domain plus cytoplasmic domain, CPD); Calculated molecular mass 51.0 kDa; Details of construction and expression are in the Supporting information; also called full-length GtACR1; source: P. pastoris SMD1168H, recombinant expression (pPICZ B vector, codon-optimised gene); not shown: His8, C-terminal, kept
For orientation: stoichiometry N means the number of molecules, sites or subunits per partner or assembly. As to B1, the “stoichiometry N” value was found to be 2.

B2: GtACR1 without the CPD (GtACR1_ΔCPD), C-terminal eight-histidine tag (domain or fragment, Guillardia theta, UniProt L1J207 1-295, looked up)
chain: MSSITCDPAIYGEWSRENQFCVEKSLITLDGIKYVQLVMAVVSACQVFFMVTRAPKVPWEAIYLPTTEMITYSLAFTGNGYIRVANGKYLPWARMASWLCTCPIMLGLVSNMALVKYKSIPLNPMMIAASSICTVFGITASVVLDPLHVWLYCFISSIFFIFEMVVAFAIFAITIHDFQTIGSPMSLKVVERLKLMRIVFYVSWMAYPILWSFSSTGACIMSENTSSVLYLLGDALCKNTYGILLWATTWGLLNGKWDRDYVKGRNVDGTLMPEYEQDLEKGNTERYEDARAGET
modifications: all-trans-retinal bound to Lys238 via a protonated Schiff base linkage
notes: Guillardia theta anion channelrhodopsin 1 (GtACR1) with the C-terminal cytoplasmic domain (CPD, 143 amino acids) deleted; composed of 295 amino acids; Calculated molecular mass 34.4 kDa; also called CPD-deleted GtACR1; GtACR1 rhodopsin domain; source: P. pastoris SMD1168H, recombinant expression (pPICZ B vector, codon-optimised gene); not shown: His8, C-terminal, kept
As for B2, the “stoichiometry N” value turned out to be 2.
